Legend:
[1] = target: HSV-2 (MS strain, VR-540 ATCC): unidentified viral antigen on virions or infected VERO-E6 cells (Herpes simplex virus 2); assay: cell-based or functional assay
[2] = target: HSV-1 (HF strain, VR-260 ATCC): unidentified viral antigen on virions or infected VERO-E6 cells (Herpes simplex virus 1); assay: cell-based or functional assay

concentration reducing HSV cytopathic effect by 50% (IIF assay) [1]: < 5 µg/mL
concentration reducing HSV cytopathic effect by 50% (IIF assay) [2]: < 5 µg/mL
B1: Fab Ex2 (IgG1 Fab format) (Fab, V domains shown)
VH: LESGGGVVQPGRSLRLSCAASGFTFTTFAMHWVRQAPGKGLEWLAFISYDGSNKYYADSVKGRFTISRDNSKNTLYLQMNSLRAEDTSIYYCAREVWNYADYWGQGALVTVSS
VL: ELTQSPGTLSSSPGHRATLSCKASAPLGSNHMAWYQQKPGQAPRLLIYGASTRATGVPARFTGSGSGTDFTLTISSLQPEDFATYYCQQANSFPRTFGQGTKVEIK
